This is an account of results in patent publication US20030148264A1, “Phage displayed PDZ domain ligands” (GENENTECH, INC., priority 2001, published 2003).

One test has as its target T1, MAGI 3 PDZ2 (Homo sapiens, UniProt Q5TCQ9).
T1 sequence (Q5TCQ9 584-707 isoform Q5TCQ9-2): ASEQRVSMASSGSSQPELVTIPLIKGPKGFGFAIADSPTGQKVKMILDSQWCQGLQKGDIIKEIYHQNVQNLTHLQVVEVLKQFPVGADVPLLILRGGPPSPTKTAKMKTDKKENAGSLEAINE
The experiment in a line: Biotinylated peptide pull-down of PDZ domains from HEK 293 cell extracts. The format is binding. Also noted: PDZ 2; aa; expressed in transfected cells; host or cells: HEK 293. The settings on record: GST fusion, FIG. 4, FIG. 8. As for the experimental part: (§1) HEK 293 (293) cells grown in high glucose Dulbeco's Modified Eagle Medium (DMEM), 10% fetal calf serum, 1× non-essential amino acid supplement, 1×L-glutamine supplement, 10 mM HEPES (pH 7.4) and penicillin/streptomycin (all from Life Technologies) to ˜80% confluence were transfected with 2 μg DNA/35 mm diameter well (for example, DNAs encoding the sequences described in EXAMPLE 5.0) using Fugene reagent (Roche Biochemical). 24 hours post-transfection, cells were washed once with PBS and then scraped into 1 ml/well of 20 mM Tris (pH 7.5), 1% Triton X-100, 200 mM NaCl, 1 mM dithiothreitol, and protease inhibitor cocktail with EDTA (Roche Biochemical, catalog #1836145) and homogenized gently with three to five strokes in a dounce (Wheaton) using a loose glass pestle. Extracts were centrifuged at 12,000 rpm in a tabletop centrifuge at 4° C. for 10 minutes; the supernatant was combined with an equal volume of homogenization buffer without NaCl to achieve a final salt concentration of 100 mM and frozen at −70° C. until use. For peptide-pull-down experiments of MAGI-3 PDZ domains or the ERBIN PDZ domain, 100 μl of 293 cell extract was diluted to 400 μl in binding buffer (homogenization buffer modified to 100 mM NaCl) and incubated with 10 μM amino-terminally biotinylated peptide and 100 μl of strepavidin agarose (Sigma) for 2 hours on a rotator at 4° C. The beads were washed three times with 1 ml binding buffer and boiled in 60 μl of Laemmli's reducing sample buffer, of which 15 μl was loaded onto SDS-gels. PDZ domains co-precipitated with a given biotinylated peptide were visualized by immunoblot analysis using anti-GST (Genentech) or anti-GFP (Clontech) antibodies. […] Binding of 293 cell-expressed proteins was detected by immunoblot analysis using antibodies against GFP (Clontech) and Her 2 (Santa Cruz Biotechnology). […]

The next test deals with T2, MAGI-3 PDZ 3 (Homo sapiens, UniProt Q5TCQ9).
T2 construct: PDZ 3; aa; expressed in transfected cells; host or cells: HEK 293
T2 sequence (Q5TCQ9 741-840 isoform Q5TCQ9-2): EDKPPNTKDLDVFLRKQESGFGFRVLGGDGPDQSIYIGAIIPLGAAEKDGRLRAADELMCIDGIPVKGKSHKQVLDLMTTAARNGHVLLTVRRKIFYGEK
Described as above. The format is binding. The settings on record: GST fusion, FIG. 4. As for the experimental part:
as §1, with “use.” for “use. For peptide-pull-down experiments of MAGI-3 PDZ domains or the ERBIN PDZ domain, 100 μl of 293 cell extract was diluted to 400 μl in binding buffer (homogenization buffer modified to 100 mM NaCl) and incubated with 10 μM amino-terminally biotinylated peptide and 100 μl of strepavidin agarose (Sigma) for 2 hours on a rotator at 4° C. The beads were washed three times with 1 ml binding buffer and boiled in 60 μl of Laemmli's reducing sample buffer, of which 15 μl was loaded onto SDS-gels. PDZ domains co-precipitated with a given biotinylated peptide were visualized by immunoblot analysis using anti-GST (Genentech) or anti-GFP (Clontech) antibodies.”

Test [1] addresses GST-MAGI-3 PDZ 2 (aa. 584-707 of SEQ ID NO:200) (human) [GST: P08515]. The experiment in a line: competition ELISA. In general terms: An ELISA detects its analyte on a solid surface through an enzyme-linked reagent.
For test [2] the target is unchanged. The experiment in a line: competition ELISA: peptide blocks GST-PDZ binding to immobilized peptide.
Test [3] concerns the target ERBIN PDZ-GST fusion protein (aa. 1217-1371 of SEQ ID NO:201) (human) [GST: P08515]. The experiment in a line: competition ELISA: ERBIN PDZ-GST binding to immobilized biotin-PDZ 501.
The target in the next test is ERBIN PDZ domain (Homo sapiens, UniProt Q96RT1). The experiment in a line: GST-PDZ co-precipitation of proteins from transfected HEK 293 cell extracts. The format is binding. Details: made in house; host or cells: E. coli. The settings on record: extracts from transfected HEK 293 cells; FIG. 6. The procedure: HEK 293 (293) cells grown in high glucose Dulbeco's Modified Eagle Medium (DMEM), 10% fetal calf serum, 1× non-essential amino acid supplement, 1×L-glutamine supplement, 10 mM HEPES (pH 7.4) and penicillin/streptomycin (all from Life Technologies) to ˜80% confluence were transfected with 2 μg DNA/35 mm diameter well (for example, DNAs encoding the sequences described in EXAMPLE 5.0) using Fugene reagent (Roche Biochemical). 24 hours post-transfection, cells were washed once with PBS and then scraped into 1 ml/well of 20 mM Tris (pH 7.5), 1% Triton X-100, 200 mM NaCl, 1 mM dithiothreitol, and protease inhibitor cocktail with EDTA (Roche Biochemical, catalog #1836145) and homogenized gently with three to five strokes in a dounce (Wheaton) using a loose glass pestle. Extracts were centrifuged at 12,000 rpm in a tabletop centrifuge at 4° C. for 10 minutes; the supernatant was combined with an equal volume of homogenization buffer without NaCl to achieve a final salt concentration of 100 mM and frozen at −70° C. until use. […] Binding of 293 cell-expressed proteins was detected by immunoblot analysis using antibodies against GFP (Clontech) and Her 2 (Santa Cruz Biotechnology).
Amino acids 1217-1371 of ERBIN and 584-707 corresponding to PDZ 2 of MAGI-3 (Sidhu et al., 2000); were expressed in E. coli as GST fusions. […] Equal volumes of extract and depleted extract (sup.) were analyzed.

Test [4] has as its target GST-MAGI-3 PDZ 3 (aa. 741-840 of SEQ ID NO:200) (human) [GST: P08515]. The experiment in a line: competition ELISA: peptide blocks GST-PDZ binding to immobilized peptide.
Another test concerns Caco-2 cells. The experiment in a line: Peptide targeting in live Caco-2 cells (fluorescein coupled peptides, confocal microscopy). It is filed as cell-based. The settings on record: polarised Caco-2 monolayer, overnight incubation, 2 mM or 5 mM peptide; FIG. 5. The procedure:
Caco-2 cells were grown on polycarbonate transwell filters (12 mm diameter, 0.4 μm pore size; Costar) in same media as HEK 293 cells) until a fully polarized monolayer was obtained as determined by resistance measurements. The live cells were then incubated overnight with amino terminally, fluorescein (FAM) coupled peptides: (A) 2 μM of ATQITWV (SEQ ID NO:214), (B) 2 μM ATQITWA (SEQ ID NO:215) or (C) 5 μM ASKITWV (SEQ ID NO:216) added into the media of the lower transwell chamber. The cells were then washed with Hanks Balanced Salt Solution (HBSS) with 1.8 mM CaCl2, fixed with ice cold methanol, permeabilized with 0.25% Triton X-100 in PBS, blocked with 5% donkey serum in PBS and stained with 1.5 μg monoclonal anti-γ-catenin antibody. The basolateral marker protein γ-catenin was visualized using Cy3-conjugated donkey anti-mouse antibodies (Jackson Immunolabs), diluted 1:1000. Processed filters were excised with a razor and mounted between a slide and coverslip with Vectashield mounting medium (Vector Labs; Burlingame, Calif.). Images were taken on a Leica confocal microscope using a 63X oil immersion objective.
Caco-2 cells were grown on polycarbonate transwell filters until a fully polarised monolayer was obtained. The live cells were then incubated overnight with the fluorescein (green) coupled peptides: (A) 2 mM of ATQITWV (SEQ ID NO:214), (B) 2 mM ATQITWA (SEQ ID NO:215) or (C) 5 mM ASKITW (SEQ ID NO:221) (FIG. 5). The cells were then fixed and counterstained with antibodies against the protein γ-catenin (FIG. 5). […] Substitution of A for V at the peptide carboxyl terminus should disrupt the interaction of a ligand with its cognate PDZ binding partner.

In test [5] the target is GST-MAGI-3 PDZ 3 (aa. 741-840 of SEQ ID NO:200) (human) [GST: P08515]. The experiment in a line: competition ELISA.
Test [6] deals with T3, GST-MAGI-3 PDZ 2 (aa. 584-707 of SEQ ID NO:200) (human, UniProt P08515 1-218 = GST). The experiment in a line: competition ELISA: peptide blocks GST-PDZ binding to immobilized peptide.
Test [7] concerns the target T3, GST-MAGI-3 PDZ 2 (aa. 584-707 of SEQ ID …). The experiment in a line: competition ELISA.

Chain of GST-MAGI-3 PDZ 2 (aa. 584-707 of SEQ ID NO:200) (human) [GST: P08515] (P08515 whole entry): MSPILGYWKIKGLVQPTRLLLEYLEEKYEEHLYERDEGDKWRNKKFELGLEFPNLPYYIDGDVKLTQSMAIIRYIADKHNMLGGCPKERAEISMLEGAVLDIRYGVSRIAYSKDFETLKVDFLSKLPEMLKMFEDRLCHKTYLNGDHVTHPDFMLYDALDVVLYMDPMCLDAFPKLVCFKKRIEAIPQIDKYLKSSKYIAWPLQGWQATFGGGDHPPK
Chain of GST-MAGI-3 PDZ 3 (aa. 741-840 of SEQ ID NO:200) (human) [GST: P08515] (P08515 whole entry): as above
T3 sequence (P08515 whole entry): as above
Chain of ERBIN PDZ domain (Q96RT1 1258-1412): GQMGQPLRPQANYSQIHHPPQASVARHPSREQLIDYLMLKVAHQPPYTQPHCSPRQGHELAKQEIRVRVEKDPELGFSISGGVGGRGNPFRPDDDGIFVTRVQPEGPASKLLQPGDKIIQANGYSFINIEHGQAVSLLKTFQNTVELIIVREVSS
Chain of ERBIN PDZ-GST fusion protein (aa. 1217-1371 of SEQ ID NO:201) (human) [GST: P08515] (P08515 whole entry, the tested form may be a part): as the sequence (P08515 whole entry) above

For the molecule “ATQITKV [biotinylated peptide with W to K change at the (−1) position, reference compound]”, the “precipitation of MAGI-3 PDZ 2 from cell extracts by biotinylated peptide” value with MAGI 3 PDZ2 is given as “did not bind”. In addition, in the test with MAGI-3 PDZ 3, the “precipitation of MAGI-3 PDZ 3 from cell extracts by biotinylated peptide” value is recorded as “did not bind”.
Broadly, the IC50 is the concentration needed to halve the response being measured. As to VTWV (peptide), the IC50 in test [1] and in [2] was 4000 nM in each case.
As to DVPV (peptide), the IC50 in [3] is above 400000 nM.
As to “Her 2: Her 2 receptor, a previously reported ligand for the ERBIN PDZ”, in the test with ERBIN PDZ domain, the “binding to / precipitation by GST-ERBIN PDZ” value is “specifically precipitated”.
TRWWFDI (peptide): in [4], the IC50 was 900 nM.
As for CSWV (peptide), the IC50 is 1000 nM in [1] and 1400 nM in test [2].
As for “ATQITWV [derivative of the C-terminus of PTEN, K to W at (−1); used biotinylated or fluorescein coupled]”, in the test with MAGI 3 PDZ2, the “precipitation of MAGI-3 PDZ 2 from cell extracts by biotinylated peptide” value was “efficiently precipitate only the PDZ domain that they were phage-selected against”. The “localization of fluorescein coupled peptide in live cells” value (shortened to “localization”) in the test on Caco-2 cells is recorded as “localize apically on the lateral membrane to the tight junction”.
As for “ASKITWV [amino terminally fluorescein (FAM) coupled peptide]”, the “localization” value with Caco-2 cells was “localize apically on the lateral membrane to the tight junction”.
For “ATQITWA [V to A change at the (0) position; used biotinylated or fluorescein coupled]”, the “precipitation of MAGI-3 PDZ 2 from cell extracts by biotinylated peptide” value in the test with MAGI 3 PDZ2 was “did not bind”. The “localization” value in the test on Caco-2 cells is recorded as “does not target to the tight junction”. The “precipitation of MAGI-3 PDZ 3 from cell extracts by biotinylated peptide” value in the test with MAGI-3 PDZ 3 is on record as “did not bind”.
On to TRWWFDI-NH2 (peptide), for which the fold reduction in binding affinity against the unamidated peptide in [5] is 300 fold. This molecule also gave an IC50 in [4] of 300000 nM.

B1: ASKVTWV (peptide)
peptide: ASKVTWV
notes: synthetic peptide
Take B1: the IC50 in [6] worked out at 800 nM.

B2: ITKV (peptide)
peptide: ITKV
notes: also called MAGI 3 PDZ2 domain "naturally-selected" ligand
B2: the IC50 in [7] amounted to 200000 nM.

B3: DGICSWV (peptide)
peptide: DGICSWV
notes: synthetic peptide
In test [6], B3 yielded an IC50 of 300 nM.
